Measurements taken from patent publication US20250340660A1 (published 2025).

What was measured:
[1] = biological target: T1, cynomolgus CD30L expressed on cells (cynomolgus, UniProt A0A7N9CVX7 1-234); assay: flow cytometry, hybridoma supernatant 1/50 dil, cells expressing cynomolgus CD30L
T1 construct: whole, on cells; also called cyCD30L; cyno CD30L
T1 sequence: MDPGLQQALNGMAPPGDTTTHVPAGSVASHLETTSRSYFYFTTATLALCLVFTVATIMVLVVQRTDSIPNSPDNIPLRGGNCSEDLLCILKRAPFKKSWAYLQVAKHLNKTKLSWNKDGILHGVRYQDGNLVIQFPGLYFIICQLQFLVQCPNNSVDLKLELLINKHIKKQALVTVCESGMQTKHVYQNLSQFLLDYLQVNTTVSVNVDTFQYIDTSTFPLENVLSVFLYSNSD

[2] = biological target: T2, recombinant human CD30L protein (human, UniProt P32971 63-234, limits assumed); assay: ELISA, hybridoma supernatant 1/5000 dil, recombinant human CD30L
T2 construct: also called huCD30L; rhCD30L
T2 sequence (looked up): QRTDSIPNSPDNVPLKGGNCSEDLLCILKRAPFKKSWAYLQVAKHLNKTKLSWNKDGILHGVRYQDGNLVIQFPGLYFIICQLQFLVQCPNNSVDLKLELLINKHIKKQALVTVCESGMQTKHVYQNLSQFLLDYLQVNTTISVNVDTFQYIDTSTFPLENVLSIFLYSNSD

[3] = biological target: T2, recombinant human CD30L protein; assay: ELISA, hybridoma supernatant 1/500 dil, recombinant human CD30L
[4] = biological target: T2, recombinant human CD30L protein; assay: ELISA, hybridoma supernatant 1/50 dil, recombinant human CD30L
[5] = biological target: T3, human CD30L expressed on cells (human, UniProt P32971 1-234); assay: flow cytometry, hybridoma supernatant 1/50 dil, cells expressing human CD30L
T3 construct: also called huCD30L; TNFSF8
T3 sequence: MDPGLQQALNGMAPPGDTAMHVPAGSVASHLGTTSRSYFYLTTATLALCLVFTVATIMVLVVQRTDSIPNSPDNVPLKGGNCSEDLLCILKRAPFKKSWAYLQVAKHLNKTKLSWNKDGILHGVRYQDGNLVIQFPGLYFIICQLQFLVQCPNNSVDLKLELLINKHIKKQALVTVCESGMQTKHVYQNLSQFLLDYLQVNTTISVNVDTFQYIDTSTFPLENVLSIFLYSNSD

[6] = biological target: T4, human CD30L expressed on cells (human, UniProt P32971 1-234); assay: flow cytometry, labelled antibody on PMA/ionomycin-stimulated primary lymphocytes, Patient 1 (CD, #04-021)
T4 construct: whole, on cells; The assay field of each row tells which cells carried it; also called huCD30L; B16-huCD30L cells
T4 sequence (looked up): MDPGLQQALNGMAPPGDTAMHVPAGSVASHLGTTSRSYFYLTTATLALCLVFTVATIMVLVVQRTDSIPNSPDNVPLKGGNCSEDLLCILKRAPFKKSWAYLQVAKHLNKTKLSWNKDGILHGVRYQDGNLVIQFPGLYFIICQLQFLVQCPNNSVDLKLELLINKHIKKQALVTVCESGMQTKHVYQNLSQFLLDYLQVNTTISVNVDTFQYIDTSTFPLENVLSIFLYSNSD
Description: (§1) Peripheral blood mononuclear cells (PBMCs) were isolated from freshly collected whole blood from Ulcerative Colitis (UC) and Crohn's Disease (CD) patients, by conventional density gradient centrifugation. […] After washing to remove unbound antibodies, the cells were fixed in a paraformaldehyde solution and analyzed by flow cytometry to quantify cell surface antibody binding.

[7] = biological target: T4, human CD30L expressed on cells; assay: flow cytometry, labelled antibody on PMA/ionomycin-stimulated primary lymphocytes, Patient 4 (CD, #01-051)
Description: as §1

[8] = biological target: T4, human CD30L expressed on cells; assay: flow cytometry, labelled antibody on PMA/ionomycin-stimulated primary lymphocytes, Patient 2 (UC, #03-041)
Description: as §1

[9] = biological target: T4, human CD30L expressed on cells; assay: flow cytometry, labelled antibody on PMA/ionomycin-stimulated primary lymphocytes, Patient 3 (UC, #02-180)
Description: as §1

[10] = biological target: T5, recombinant human CD30L (human, UniProt P32971 63-234, limits assumed); assay: biosensor: antibody captured, CD30L bound, competitor rhCD30 added; signal of CD30 association (over 0.15 = non-blocking)
T5 construct: also called rhCD30L; TNFSF8
T5 sequence (looked up): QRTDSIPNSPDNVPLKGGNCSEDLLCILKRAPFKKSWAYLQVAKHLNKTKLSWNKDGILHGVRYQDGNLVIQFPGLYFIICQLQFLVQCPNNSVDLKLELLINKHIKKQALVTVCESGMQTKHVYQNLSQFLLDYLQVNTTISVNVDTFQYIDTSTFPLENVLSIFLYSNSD
Protocol: Briefly, individual anti-human biosensors were loaded with purified IgG (normalized to 10 μg/mL) and a baseline was measured for each biosensor. Biosensors were saturated with biotin and with polyclonal huIgG and a baseline was measured. […] Biosensors were moved to buffer wells to measure the dissociation rate.

[11] = biological target: T6, human CD30L (recombinant protein) (human, UniProt P32971 63-234); assay: Carterra, human CD30L
T6 construct: also called rhCD30L; TNFSF8
T6 sequence: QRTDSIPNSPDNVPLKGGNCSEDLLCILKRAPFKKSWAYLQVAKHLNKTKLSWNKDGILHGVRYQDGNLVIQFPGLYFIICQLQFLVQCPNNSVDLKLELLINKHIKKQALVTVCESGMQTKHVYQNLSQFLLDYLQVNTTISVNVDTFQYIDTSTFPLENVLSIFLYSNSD

B1: anti-CD30L antibody Clone 1 (parental, hybridoma) (antibody, V domains shown)
VH: QVQLQESGPGLVKPSETLSLTCTVSGGSISGYYWSWIRQPPVKGLEWIGYIFYSGYTKYNPSLKSRVTISVDTSKNQFSLKLSSVTAADTAVYYCARDRWDFDYWGQGALVTVSS
VL: AIQMTQSPSYLSASVGDRVTIACRASQGIRNNLGWYQQKPGKAPKLLIYAESSLQSGVPSRFSGSGSGTDFTLTISSLQPEDFATYYCLQDFNYPYTFGQGTKLEIK
notes: Tested as diluted hybridoma supernatant from mice with a humanized immunoglobulin locus
B1 was tested, and the “Cell Binding (MFI)” value [1] was 77.3 MFI, the “Elisa Binding (OD)” value [2] was 1.28 OD and the “Elisa Binding (OD)” value [3] was 3.02 OD. For the same binder, the “Elisa Binding (OD)” value [4] was 3.59 OD and the “Cell Binding (MFI)” value [5] was 208 MFI.

B2: anti-CD30L antibody Clone 3 (parental, hybridoma) (antibody, V domains shown)
VH: QVQLQESGPGLVKPSETLSLTCTVSGGSISGYYWSWIRQPPVKGLEWIGYIFYSGYTKYNPSLKSRVTISVDTSKNQFSLKLSSVTAADTAVYYCARDRWDFDYWGQGALVTVSS
VL: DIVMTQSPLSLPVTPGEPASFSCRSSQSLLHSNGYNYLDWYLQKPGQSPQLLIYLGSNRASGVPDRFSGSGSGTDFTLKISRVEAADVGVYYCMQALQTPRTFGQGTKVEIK
notes: as for B1
For B2, the “Cell Binding (MFI)” value [1] was 72.4 MFI, the “Elisa Binding (OD)” value [2] was 0.662 OD and the “Elisa Binding (OD)” value [3] was 2.54 OD. For the same binder, the “Elisa Binding (OD)” value [4] was 3.5 OD and the “Cell Binding (MFI)” value [5] was 153 MFI.

B3: Clone 1, fluorescently labeled (format not stated in Table 7) (antibody, V domains shown)
VH: QVQLQESGPGLVKPSETLSLTCTVSGGSISGYYWSWIRQPPVKGLEWIGYIFYSGYTKYNPSLKSRVTISVDTSKNQFSLKLSSVTAADTAVYYCARDRWDFDYWGQGALVTVSS
VL: AIQMTQSPSYLSASVGDRVTIACRASQGIRNNLGWYQQKPGKAPKLLIYAESSLQSGVPSRFSGSGSGTDFTLTISSLQPEDFATYYCLQDFNYPYTFGQGTKLEIK
modifications: fluorescent label (site not stated)
notes: The variable domains are those of parental clone 1
For B3, the EC50 [6] was 7.45 nM, the EC50 [7] was 4.53 nM and the EC50 [8] was 5.43 nM. The EC50 [9] was 5.57 nM.

B4: anti-CD30L antibody clone 64 (antibody, V domains shown)
VH: EVQLVESGGGLVQPGGSLRLSCAASGFTFSNYAMTWVRQAPGKGLEWVSAISGFGGSTYYADSVKGRFTISRDNSKNTLYLQMNSLRAEDTAVYYCAKDHDYYAFDYWGQGTLVTVSS
VL: not shown
notes: purified recombinant IgG, humanized mouse strain #1; also called Clone ID 64
In the case of B4, the “rhCD30L:rhCD30 Blocking” value [10] is reported as 0.0633 relative units.

B5: anti-CD30L antibody clone 65 (antibody, V domains shown)
VH: EVQLVESGGGLVQPGGSLKLSCAASGFTFSNYAMTWVRQAPGKGLEWVSAISGYGGSTYYAASVKGRFTISRDNSKNTLFLQMNSLRAEDTAVYYCAKDHDYYAFDYWGQGTLVPVSS
VL: not shown
notes: purified recombinant IgG, humanized mouse strain #1; also called Clone ID 65
B5 was tested, and the “rhCD30L:rhCD30 Blocking” value [10] was 0.0522 relative units.

B6: anti-CD30L antibody clone 63 (antibody, V domains shown)
VH: EVQLVESGGGLVQPGGSLRLSCAASGFMFSSYSMNWVRQAPGKGLEWVSYISSSSSTIYDADSVKGRFTISRDDAKNSLYLQMNSLRDEDTAVYYCTREAYPGYYYNYMDVWGKGTTVTVSS
VL: DIQMTQSPSSLSASVGDRVTITCRASQSISSRLAWYQQKPGKAPNLLIYKASNLESGVPSRFSGSGSGTEFTLTISSLQPDDFATYYCQQYNSYSRTFGQGTKVEIK
notes: purified recombinant IgG, humanized mouse strain #1; also called Clone ID 63
With B6 the “rhCD30L:rhCD30 Blocking” value [10] was 0.0592 relative units.

B7: anti-CD30L antibody clone 82 (antibody, V domains shown)
VH: EVQLVESGGGLVQPGGSLRLSCAVSGITFSNAWMSWVRQAPGKGLEWVGRIKSKTYGGTTDYAAPVKGRFIISRDDSKDTLYLQMNSLKTEDTAIYYCTTDPWNYVNYNYFMDVWGKGTTVTVSS
VL: DIQMTQSPSSLSASVGDRVTITCRASQDIRNYLAWYQQKPGKITHLLVYAASTLQSGVPSRFSGSGSGTDFTLTINSLQPEDVATYYCQNYFSVPLTFGGGTKVEIK
notes: Purified recombinant antibody
With B7 the Kd [11] was 0.559 nM.
